Test results reported in IntAct's records for PubMed 21934712.

Molecular target: scc4_human MAU2 (UniProt Q9Y6X3)
Chain of UniProt Q9Y6X3 (Q9Y6X3 whole entry): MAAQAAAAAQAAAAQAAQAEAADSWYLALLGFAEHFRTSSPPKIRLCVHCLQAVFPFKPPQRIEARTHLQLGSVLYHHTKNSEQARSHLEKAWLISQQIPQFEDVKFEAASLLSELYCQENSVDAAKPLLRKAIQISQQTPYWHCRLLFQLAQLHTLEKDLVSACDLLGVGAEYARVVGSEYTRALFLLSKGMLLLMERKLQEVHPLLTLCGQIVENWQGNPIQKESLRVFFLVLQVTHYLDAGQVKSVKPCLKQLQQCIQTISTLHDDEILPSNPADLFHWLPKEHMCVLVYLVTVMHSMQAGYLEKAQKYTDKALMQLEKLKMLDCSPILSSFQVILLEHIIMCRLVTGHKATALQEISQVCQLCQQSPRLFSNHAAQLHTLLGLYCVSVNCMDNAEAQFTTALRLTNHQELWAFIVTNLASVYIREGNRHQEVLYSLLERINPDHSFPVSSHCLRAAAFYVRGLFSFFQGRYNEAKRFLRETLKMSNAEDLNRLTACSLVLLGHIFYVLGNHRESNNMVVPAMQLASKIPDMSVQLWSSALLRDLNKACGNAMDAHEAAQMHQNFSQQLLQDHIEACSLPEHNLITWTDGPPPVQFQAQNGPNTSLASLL

| effect of a mutation on the interaction | Substance |
| --- | --- |
| decreasing interaction strength | Nipped-B-like protein (Homo sapiens), Q6KC79 G15R |
| decreasing interaction strength | Nipped-B-like protein (Homo sapiens), Q6KC79 P29Q |
